Source: patent US20090130652A1 (CRUCELL HOLLAND B V, published 2009)

B1: CR4354L4261 (antibody, human IgG1, lambda, V domains shown)
VH: QVQLVQSGAEVRKPGASVKVSCKASGYTFTHYYMHWVRQAPGQGLEWMGIINPSGGSTTYAQKLQGRVTMTRDTSTSTVYMELSSLRSEDTAVYYCARDWGSNYVWGSYPKYWGQGTLVTVSS
VL: TQAVLTQPSSASGTPGQRVTISCSGSSPNIGSNNVNWYQQLPGTAPKLLIYSNNQRPSGVPGRFSGSKSGTSASLAISGLQSEDEADYYCAAWDDGLSGNYVFGAGTQLTVLS
B2: CR4354L4328 (antibody, human IgG1, lambda, V domains shown)
VH: QVQLVQSGAEVRKPGASVKVSCKASGYTFTHYYMHWVRQAPGQGLEWMGIINPSGGSTTYAQKLQGRVTMTRDTSTSTVYMELSSLRSEDTAVYYCARDWGSNYVWGSYPKYWGQGTLVTVSS
VL: TQAVLTQPSSVSGTPGQRVTISCSGSSSNIGSNTVNWYQQLPGTAPKLLIYGNNNRPSGVPARFSGSRSGTSASLAISGLRSEDEADYYCAAWDDSLNGPVFGGGTKLTVLG
B3: CR4354L4335 (antibody, human IgG1, lambda, V domains shown)
VH: QVQLVQSGAEVRKPGASVKVSCKASGYTFTHYYMHWVRQAPGQGLEWMGIINPSGGSTTYAQKLQGRVTMTRDTSTSTVYMELSSLRSEDTAVYYCARDWGSNYVWGSYPKYWGQGTLVTVSS
VL: TQSVLTQPPSTSGTPGQRVTISCSGSDSNIGSNTVNWYQQLPGMAPKLLIYRNNQRPSGVPDRFSGSKSGTSASLAISGLQSEDEADYFCASWDANLGGPLFGGGTKVTVLG

molecular target: WNV strain 385-99 (infectious, as used in the virus neutralization assay); assay: cell-based or functional assay

Row | Binder | Potency (%) in 66% neutralization concentration, VNA [%]
1 | B1 | 106
2 | B2 | 286
3 | B3 | 60
